The source of these data is patent US20220251236A1 (Boehringer Ingelheim, published 2022).

One experiment deals with T1, Human CD3 E+G HuFc-6xHis (human).
T1 construct: also called hu CD3εγ-Fc
Description: SPR (ProteOn XPR36), HuCD3E_HuCD3G-Fc amine-coupled, bispecific as analyte, Example 4B. As for the experimental part: The binding affinity of purified DLL3/CD3 bispecific constructs for recombinant human DLL3-ECD and Fc-fusion protein of human CD3 εγ subunits was determined by Surface Plasmon Resonance (SPR), using a ProteOn XPR36 instrument (Bio-Rad).
For binding kinetic determination to CD3, HuCD3E_HuCD3G-Fc (dissolved in pH 4.5 acetate) was immobilized directly onto the sensor surface through amine coupling for 360 sec at a flowrate of 30 μl/min vertically. The baseline was stabilized by injecting PBS-T-EDTA for 60 sec at a flowrate of 30 μl/min horizontally. The analytes (all anti-DLL3/CD3 molecules) were injected horizontally over the captured antibody for 600 sec at a flowrate of 30 μl/min and a dissociation for 1800 sec.

Experiment [1] concerns the target T2, trypsin inhibitor from glycine max soybean (Glycine max (soybean)).
T2 construct: also called Tryp
The experiment in a line: SPR (Biacore T200), trypsin inhibitor on CM5 chip, sample at 1 µM. The text has this:
To prepare the surface for the non-specific binding experiment, chicken egg white lysozyme and trypsin inhibitor from glycine max soybean were coupled manually to a series S CM5 chip with the surface density of 3000-5000 RU using the amine coupling kit according to the manufacture instructions.
(Surface plasmon resonance follows binding to a sensor surface in real time, without labels.)

In a further experiment the target is T3, EGF4+5.
T3 construct: also called Hu DLL3 EGF4+5 on HEK293 cells
T3 membrane-anchored DLL3 subdomain construct: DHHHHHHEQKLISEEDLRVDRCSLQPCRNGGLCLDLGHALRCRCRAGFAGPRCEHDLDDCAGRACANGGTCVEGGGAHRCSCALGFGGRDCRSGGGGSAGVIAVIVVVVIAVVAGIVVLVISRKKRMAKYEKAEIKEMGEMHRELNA
The experiment in a line: flow cytometry on HEK293 cells expressing the DLL3 subdomain construct, PE anti-human secondary, control: secondary antibody only. The procedure: (§1) DLL3/CD3 binding proteins were produced by transient transfection of CHO-E cells with the pTT5 vectors carrying the chain-encoding genes, as described in Example 2. […] Bound molecules were detected with PE-conjugated anti-human secondary antibody (Sigma-Aldrich, #P8047). As negative control, cells were incubated with secondary antibody only.
(§2) The samples were measured by flow-cytometry. […] The sequences of the epitope domains are listed in Example 5, Table 3.

The target in another experiment is T4, EGF2+3.
T4 construct: also called Hu DLL3 EGF2+3 on HEK293 cells
T4 membrane-anchored DLL3 subdomain construct: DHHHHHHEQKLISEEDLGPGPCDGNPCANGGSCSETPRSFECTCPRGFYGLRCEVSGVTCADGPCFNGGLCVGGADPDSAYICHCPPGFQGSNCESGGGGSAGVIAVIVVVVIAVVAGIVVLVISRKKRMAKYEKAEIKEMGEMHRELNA
Described as above. As for the experimental part: as §1, §2

The target of a further experiment is T5, EGF5+6.
T5 construct: also called Hu DLL3 EGF5+6 on HEK293 cells
T5 membrane-anchored DLL3 subdomain construct: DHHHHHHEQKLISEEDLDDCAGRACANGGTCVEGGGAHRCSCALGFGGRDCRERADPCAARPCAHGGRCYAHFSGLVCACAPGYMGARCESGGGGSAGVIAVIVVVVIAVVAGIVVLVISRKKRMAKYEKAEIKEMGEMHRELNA
The description is as above. The procedure:
as §1, §2

In a further experiment the target is T6, EGF3+4.
T6 construct: also called Hu DLL3 EGF3+4 on HEK293 cells
T6 membrane-anchored DLL3 subdomain construct: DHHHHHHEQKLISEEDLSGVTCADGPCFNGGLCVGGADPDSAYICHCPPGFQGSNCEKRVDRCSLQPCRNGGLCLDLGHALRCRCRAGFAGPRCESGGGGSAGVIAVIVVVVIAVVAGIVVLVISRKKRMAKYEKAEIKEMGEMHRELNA
The experiment is described as above. As for the experimental part: as §1, §2

Experiment [2] concerns the target T7, EGF6+MEMBRANE PROXIMAL PEPTIDE.
T7 construct: also called Hu DLL3 EGF6+membrane proximal peptide on HEK293 cells
T7 membrane-anchored DLL3 subdomain construct: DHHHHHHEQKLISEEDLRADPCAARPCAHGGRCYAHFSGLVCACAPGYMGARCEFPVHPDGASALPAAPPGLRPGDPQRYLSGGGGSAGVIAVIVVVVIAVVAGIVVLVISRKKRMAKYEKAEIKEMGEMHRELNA
Described as above. The procedure:
as §1, §2

T1 sequence (chain, as listed by the source limits assumed): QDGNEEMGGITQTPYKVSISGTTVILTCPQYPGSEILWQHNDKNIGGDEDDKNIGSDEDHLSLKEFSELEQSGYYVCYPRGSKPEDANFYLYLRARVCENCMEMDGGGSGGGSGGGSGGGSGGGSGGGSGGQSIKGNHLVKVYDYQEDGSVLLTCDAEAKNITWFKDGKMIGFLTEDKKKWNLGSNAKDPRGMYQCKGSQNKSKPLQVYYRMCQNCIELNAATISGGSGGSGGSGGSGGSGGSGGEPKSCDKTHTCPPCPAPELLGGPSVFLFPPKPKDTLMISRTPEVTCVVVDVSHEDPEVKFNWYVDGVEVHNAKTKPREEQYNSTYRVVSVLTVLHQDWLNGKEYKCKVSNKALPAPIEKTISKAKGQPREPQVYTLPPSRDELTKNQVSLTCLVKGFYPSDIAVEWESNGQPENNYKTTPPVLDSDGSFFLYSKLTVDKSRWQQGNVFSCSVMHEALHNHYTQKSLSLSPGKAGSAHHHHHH
T2 sequence (P01070 25-205): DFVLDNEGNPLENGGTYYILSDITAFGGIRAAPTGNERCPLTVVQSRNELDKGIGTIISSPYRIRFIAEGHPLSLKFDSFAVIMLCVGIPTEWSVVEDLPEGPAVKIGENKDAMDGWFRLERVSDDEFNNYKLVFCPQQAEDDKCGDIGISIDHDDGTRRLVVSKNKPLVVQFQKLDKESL

B1: DLL3#11/CD3#1 (bispecific antibody, human IgG1, kappa, lambda, L234A L235A)
chain 1: QIVLTQSPAIMSASPGEKVTITCSASSSVTYIHWFQQNPGTSPKLWIYRTSYLASGVPARFSGSGSGTSYSLTISRMEAEDAATYYCQQRSSYPRTFGGGTKLEIKRTVAAPSVFIFPPSDEQLKSGTASVVCLLNNFYPREAKVQWKVDNALQSGNSQESVTEQDSKDSTYSLSSTLTLSKADYEKHKVYACEVTHQGLSSPVTKSFNRGECGGGGSEGKSSGSGSESKSTEGKSSGSGSESKSTGGGGSQVQLQQPGAELVQPGSSVKMSCKASGYAFSDYWITWVKQRPGQGLEWIGDIYPGSGSTKSSEKFKNKATLTADTSSSKAYIQFSSLTPEDSAVYYCVSLYYYGSHYLDTWGQGTTLTVSSASTKGPSVFPLAPSSKSTSGGTAALGCLVKDYFPEPVTVSWNSGALTSGVHTFPAVLQSSGLYSLSSVVTVPSSSLGTQTYICNVNHKPSNTKVDKRVEPKSCDKTHTCPPCPAPEAAGGPSVFLFPPKPKDTLMISRTPEVTCVVVDVSHEDPEVKFNWYVDGVEVHNAKTKPREEQYNSTYRVVSVLTVLHQDWLNGKEYKCKVSNKALPAPIEKTISKAKGQPREPQVYTLPPSREEMTKNQVSLWCLVKGFYPSDIAVEWESNGQPENNYKTTPPVLDSDGSFFLYSKLTVDKSRWQQGNVFSCSVMHEALHNHYTQKSLSLSPG
chain 2: EAVVTQEPSLTVSPGGTVTLTCRSSTGAVTTSNYANWVQEKPGQLPRGLIGGTNKRAPWVPARFSGSLLGGKAALTLSGAQPEDEAEYFCALWYSNLWVFGGGTKLTVLGQPKAAPSVTLFPPSSEELQANKATLVCLISDFYPGAVKVAWKADGSPVNTGVETTTPSKQSNNKYAASSYLSLTPEQWKSHRSYSCQVTHEGSTVEKTVAPAECSGGGGSEGKSSGSGSESKSTEGKSSGSGSESKSTGGGGSEVQLVESGGGLVQPGGSLKLSCAASGFTFNTYAMNWVRQAPGKGLEWVARIRSKYNNYATYYADSVKDRFTISRDDSKNTAYLQMNNLKTEDTAVYYCVRHGNFGNSYVSWFAYWGQGTLVTVSAASTKGPSVFPLAPSSKSTSGGTAALGCLVKDYFPEPVTVSWNSGALTSGVHTFPAVLQSSGLYSLSSVVTVPSSSLGTQTYICNVNHKPSNTKVDKRVEPKSCDKTHTCPPCPAPEAAGGPSVFLFPPKPKDTLMISRTPEVTCVVVDVSHEDPEVKFNWYVDGVEVHNAKTKPREEQYNSTYRVVSVLTVLHQDWLNGKEYKCKVSNKALPAPIEKTISKAKGQPREPQVYTLPPSREEMTKNQVSLSCAVKGFYPSDIAVEWESNGQPENNYKTTPPVLDSDGSFFLVSKLTVDKSRWQQGNVFSCSVMHEALHNRFTQKSLSLSPG
notes: Heterodimer of one DLL3 chain and one CD3 chain (scFab-Fc, knob-in-hole)
By Kd is commonly meant a measure of binding affinity in units of concentration. A higher Kd goes with weaker binding. In the experiment with Human CD3 E+G HuFc-6xHis, B1 displayed a Kd of 2 nM. The “Non-specific binding (RU)” value in experiment [1] is 13 RU. The binding result (in the experiment with EGF4+5; in the experiment with EGF2+3; with EGF5+6; with EGF3+4; in experiment [2]) was “no binding (tested: 1.6 nM)” throughout.

B2: DLL3#1/CD3#1 (bispecific antibody, human IgG1, kappa, lambda, L234A L235A)
chain 1: EIVLTQSPGTLSLSPGERATLSCRASQSVSSNFLVWYQQKPGQAPRPLIYGASTRASGIPDRFSGSGSGADFTLTISRLEPEDFALYYCQQYGDSPYTFGQGTTLEIKRTVAAPSVFIFPPSDEQLKSGTASVVCLLNNFYPREAKVQWKVDNALQSGNSQESVTEQDSKDSTYSLSSTLTLSKADYEKHKVYACEVTHQGLSSPVTKSFNRGECGGGGSEGKSSGSGSESKSTEGKSSGSGSESKSTGGGGSQVQLVQSGAEVKKPGASVKVSCKASGNTFTNYYMHWVRQAPGPGLEWMGIIDPSVGSKSYAQKFLGRVTIARDTSTSTVFLDLYSLRSEDTAVYFCARAGKRFGESYFDYWGQGTLVTVSSASTKGPSVFPLAPSSKSTSGGTAALGCLVKDYFPEPVTVSWNSGALTSGVHTFPAVLQSSGLYSLSSVVTVPSSSLGTQTYICNVNHKPSNTKVDKRVEPKSCDKTHTCPPCPAPEAAGGPSVFLFPPKPKDTLMISRTPEVTCVVVDVSHEDPEVKFNWYVDGVEVHNAKTKPREEQYNSTYRVVSVLTVLHQDWLNGKEYKCKVSNKALPAPIEKTISKAKGQPREPQVYTLPPSREEMTKNQVSLWCLVKGFYPSDIAVEWESNGQPENNYKTTPPVLDSDGSFFLYSKLTVDKSRWQQGNVFSCSVMHEALHNHYTQKSLSLSPG
chain 2: B1 chain 2
In the experiment with Human CD3 E+G HuFc-6xHis, B2 gave a dissociation constant Kd of 2 nM.

B3: DLL3#7/CD3#1 (bispecific antibody, human IgG1, kappa, lambda, L234A L235A)
chain 1: EIVLTQSPDTLSLSPGERATLSCRASQSVNSNFLAWYQQKPGQTPRLLIFGTSSRATGIPDRFSGSGSGTDFTLTISRLEPEDFAVYYCQQYGSSPWTFGQGTKVEIRRTVAAPSVFIFPPSDEQLKSGTASVVCLLNNFYPREAKVQWKVDNALQSGNSQESVTEQDSKDSTYSLSSTLTLSKADYEKHKVYACEVTHQGLSSPVTKSFNRGECGGGGSEGKSSGSGSESKSTEGKSSGSGSESKSTGGGGSQVQLVESGGGVVQPGRSLRLSCAASGFTFSSYGMFWVRQAPGKGLEWVAVIWLDGDDEDYVDSVKGRFTISRDDSKNTLYLQMNSLRVDDTAIYYCARVLDYWGQGTLVTVSSASTKGPSVFPLAPSSKSTSGGTAALGCLVKDYFPEPVTVSWNSGALTSGVHTFPAVLQSSGLYSLSSVVTVPSSSLGTQTYICNVNHKPSNTKVDKRVEPKSCDKTHTCPPCPAPEAAGGPSVFLFPPKPKDTLMISRTPEVTCVVVDVSHEDPEVKFNWYVDGVEVHNAKTKPREEQYNSTYRVVSVLTVLHQDWLNGKEYKCKVSNKALPAPIEKTISKAKGQPREPQVYTLPPSREEMTKNQVSLWCLVKGFYPSDIAVEWESNGQPENNYKTTPPVLDSDGSFFLYSKLTVDKSRWQQGNVFSCSVMHEALHNHYTQKSLSLSPG
chain 2: B1 chain 2
For the molecule B3, in the experiment with Human CD3 E+G HuFc-6xHis, binding was characterised by a dissociation constant (Kd) of 1 nM.
